Reference: paper PMC2190564

Biological target: yeast actin filaments (S. cerevisiae) (UniProt P60010)
Experiment: co-sedimentation

How did the Kd turn out when “native yeast Abp1p (from UniProt P15891 1-592) (natural protein)” was run?
Its Kd is under 100 nM.

And the stoichiometry N (Abp1p per actin (molar))?
The stoichiometry N (Abp1p per actin (molar)) was 1.
